B1: SNAP91 (parent)
chain: FATASAAVPVSTSKPSSDLLDLQP
B2: SPOPL (parent)
chain: AKREETKAMESQRAYRFVQGKDWG

Variants of: B1
Experiment: protein stability index of a GFP-peptide fusion (GPS, HEK-293T) (PSI 1-6); higher = more stable
Conditions: c terminus: a fixed tail appended
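Also: lentivirally expressed fusions sorted by FACS into six bins by GFP to DsRed ratio, PSI derived from sequencing read proportions per bin multiplied by bin number.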

Protein stability index of substitutions, site by site:
P24: H 3.74 | Y 3.27 | A 3.94 | N 3.43 | T 3.88 | Q 4.06 | M 3.52 | E 4.53 | G 3.63 | W 2.35 | V 3.41 | I 3.3 | C 3.56 | L 3.1 | R 3.71 | F 2.8 | K 4.34 | D 4.52 | S 3.64
Q23: Y 2.8 | W 2.69 | R 3.34 | S 4.18 | V 3.4 | P 4.13 | T 3.96

Variants of: B2
Experiment: as above
Conditions: c terminus: a fixed tail appended

Protein stability index: each site, then its substitutions
T6: M 2.32 | E 3.51 | I 2.34 | K 2.89 | D 3.18 | G 2.56 | R 2.67 | N 3.34 | A 2.48 | P 2.91 | F 2.32 | S 3.58 | Q 3.54 | H 3.2 | L 3.89 | W 2.48 | V 2.29 | C 3.06 | Y 2.46
K7: Q 3.04 | H 2.8 | F 2.9 | R 2.57 | V 2.83 | E 3.72 | M 2.62 | Y 3.5 | D 3.29 | I 2.72 | P 3.37 | S 3.23 | W 2.04 | L 2.44 | T 3.53 | N 3.25 | G 3.23 | C 1.78 | A 3.52
E4: P 2.96 | C 2.35 | L 2.26 | H 2.5 | V 2.42 | N 2.54 | A 2.96 | Y 2.02 | D 3.26 | I 3.2 | S 3.05 | Q 2.65 | W 2.59 | F 2.21 | T 3 | G 2.81 | R 2.44 | K 2.77 | M 2.63
A8: K 3.44 | H 3.28 | G 2.48 | C 2.75 | D 4.01 | E 4.1 | F 2.35 | I 2.53
A1: I 2.59 | K 2.83 | G 2.82 | V 2.29 | C 2.14 | R 2.49 | D 3.38 | Q 4.09 | P 3.02 | S 2.81 | L 2.55 | M 2.77 | W 2.61 | N 3.14 | E 3.4 | F 3.61 | Y 2.57 | H 3.61 | T 2.93
K2: W 2.48 | M 2.06 | T 3.37 | F 2.81 | C 1.75 | E 3.61 | V 2.98 | Y 2.74 | L 2.24 | N 3.41 | Q 3.13 | R 2.92 | D 3.39 | P 3.3 | G 2.6 | A 3.03 | I 2.71 | S 2.85 | H 2.93
R3: F 2.87 | C 2.26 | V 3.24 | N 2.91 | D 3.67 | Y 2.93 | A 3.49 | E 4.03 | S 3.34 | H 2.45 | W 3.08 | I 3.36 | P 2.67 | G 3 | L 3.31 | T 2.88 | K 3.38 | Q 3.22 | M 3.32
E5: G 2.35 | L 3.15 | S 2.32 | M 2.28 | A 2.67 | W 1.75 | R 2.38 | T 2.9 | K 2.79 | F 2.4 | P 2.76 | Q 2.32 | Y 1.71 | N 2.76 | D 4.16 | H 2.28 | I 2.26 | C 2.37 | V 3.02

Reference: the supplement of paper PMC10567573
